Legend:
BBCEC monolayers = experiment: Sucrose permeability of BBCEC monolayers (in vitro BBB model) in the presence of p97; format: cell-based, bovine
Experimental: FIG. 2. Effect of p97 (1 μm) on sucrose permeability with BBCECs that were preincubated for 2 hrs at 37° C. The effect of p97 at 1 μM on sucrose permeability of the in vitro BBB model was tested. The permeability coefficient (Pe) for sucrose was calculated as previously described (Dehouck, et al., J. Neurochem., 58:1790-179 (1992)) using filters coated or non-coated with BBCE cells. Briefly, coated or non-coated filters with BBCE cells were transferred to 6-well plates containing 2 ml of Ringer/Hepes per well (basolateral compartment) for 2 hrs at 37° C. In each apical (i.e., luminal) chamber, the culture medium was replaced by 1 ml Ringer/Hepes containing labeled [^14C]-sucrose. […] At the end of the experiments, amounts of the radiotracers in the basolateral (i.e., abluminal) compartment were measured in a liquid scintillation counter. The permeability coefficient (Pe) was calculated as described in FIG. 1.
FIG. 14 illustrates the stability of p97 and integrity of the BBCEC monolayers following p97 transcytosis. […] The gels were dried and scanned to quantify the amount of intact p97 that crossed the BBCEC monolayers at 37° C. and 4° C. […]
D. Sucrose permeability. The permeability coefficient for sucrose was measured to verify the endothelial permeability and the integrity and tightness of the BBCEC monolayers, as previously described, using uncoated filters or coated with endothelial cells. […]

LRP1B = experiment: RT-PCR after p97 treatment in MG1391 fibroblast cells: LRP1B; format: cell-based; details: fibroblast cell line MG1391, RT-PCR (FIGS. 40 and 41)
Experimental: FIG. 39 show the expression of members of the LDL receptor family in MG1391. RT-PCR. RT-PCR was performed for members of the LDL-R family: LRP, LRP1B, megalin, LDL, VLDL, LRP8, LR11, LRP5 and cubulin. DNA (cDNA) synthesis was performed with 1 μg of total RNA using a cDNA one step synthesis kit (Invitrogen, USA) following the manufacturer's protocol. (1× of reaction mix, RNA 1 μg, 0.2 μM of both primers, 1 μl of RT/Platinum Tag mix). The cDNA generated was amplified using primers produced with MacVector 7.0 (Oxford molecular Ltd, Oxford, UK). All the subsequent assays were then performed under conditions that produced amplifications of cDNA within a linear range. RT inverse-transcription was performed at 50° C. for 30 min. PCR amplification for 35 or 40 cycles for all was performed as follows: denaturation at 94° C. for 30 s, annealing at 60° C. for 30 s and extension at 72° C. for 1 min. Finalisation stage was performed at 72° C. for 5 min. Tubes containing all the ingredients except templates were included in all runs and served as negative controls. The amplified PCR products were electrophoresed on a 1% agarose gel in TAE (40 mM Tris, […], 1 mM EDTA, […] Ethidum bromide) and were visualized under ultraviolet light followed by densitrometric analysis.

B1: p97: recombinant human melanotransferrin (p97), provided by Synapse Technologies (protein, UniProt P08582 20-709, looked up)
Melanotransferrin: GMEVRWCATSDPEQHKCGNMSEAFREAGIQPSLLCVRGTSADHCVQLIAAQEADAITLDGGAIYEAGKEHGLKPVVGEVYDQEVGTSYYAVAVVRRSSHVTIDTLKGVKSCHTGINRTVGWNVPVGYLVESGRLSVMGCDVLKAVSDYFGGSCVPGAGETSYSESLCRLCRGDSSGEGVCDKSPLERYYDYSGAFRCLAEGAGDVAFVKHSTVLENTDGKTLPSWGQALLSQDFELLCRDGSRADVTEWRQCHLARVPAHAVVVRADTDGGLIFRLLNEGQRLFSHEGSSFQMFSSEAYGQKDLLFKDSTSELVPIATQTYEAWLGHEYLHAMKGLLCDPNRLPPYLRWCVLSTPEIQKCGDMAVAFRRQRLKPEIQCVSAKSPQHCMERIQAEQVDAVTLSGEDIYTAGKTYGLVPAAGEHYAPEDSSNSYYVVAVVRRDSSHAFTLDELRGKRSCHAGFGSPAGWDVPVGALIQRGFIRPKDCDVLTAVSEFFNASCVPVNNPKNYPSSLCALCVGDEQGRNKCVGNSQERYYGYRGAFRCLVENAGDVAFVRHTTVFDNTNGHNSEPWAAELRSEDYELLCPNGARAEVSQFAACNLAQIPPHAVMVRPDTNIFTVYGLLDKAQDLFGDDHNKNGFKMFDSSNYHGQDLLFKDATVRAVPVGEKTTYRGWLGLDYVAALEGMSSQQC
Change in sucrose permeability by p97 (BBCEC monolayers; 1 micromolar p97 (FIG. 2)): no significant change | Clearance of sucrose in the presence of p97 (BBCEC monolayers; high concentration of p97 (FIG. 14c)): No significant increase | Expression of LRP1B in MG1391 cells (LRP1B): particularly induces the expression
